Measured values published in patent US20220135665A1.

Target: recombinant human VEGF165 protein (human) (UniProt P15692)
Assay: cell-based or functional assay

Chain of EYLEA (Aflibercept) (Fc fusion) (chain): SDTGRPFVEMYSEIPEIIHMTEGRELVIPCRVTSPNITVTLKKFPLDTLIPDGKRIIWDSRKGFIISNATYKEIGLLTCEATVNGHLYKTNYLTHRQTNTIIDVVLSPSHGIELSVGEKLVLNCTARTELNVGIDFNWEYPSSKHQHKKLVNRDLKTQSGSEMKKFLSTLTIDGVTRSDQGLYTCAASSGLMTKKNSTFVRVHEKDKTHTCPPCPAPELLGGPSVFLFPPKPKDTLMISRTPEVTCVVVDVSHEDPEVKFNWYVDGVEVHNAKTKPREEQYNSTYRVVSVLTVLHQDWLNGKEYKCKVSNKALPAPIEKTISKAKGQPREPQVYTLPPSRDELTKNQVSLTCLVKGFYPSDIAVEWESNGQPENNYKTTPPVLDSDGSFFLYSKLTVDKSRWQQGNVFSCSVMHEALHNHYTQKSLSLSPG
Chain of Conbercept (Fc fusion) (chain): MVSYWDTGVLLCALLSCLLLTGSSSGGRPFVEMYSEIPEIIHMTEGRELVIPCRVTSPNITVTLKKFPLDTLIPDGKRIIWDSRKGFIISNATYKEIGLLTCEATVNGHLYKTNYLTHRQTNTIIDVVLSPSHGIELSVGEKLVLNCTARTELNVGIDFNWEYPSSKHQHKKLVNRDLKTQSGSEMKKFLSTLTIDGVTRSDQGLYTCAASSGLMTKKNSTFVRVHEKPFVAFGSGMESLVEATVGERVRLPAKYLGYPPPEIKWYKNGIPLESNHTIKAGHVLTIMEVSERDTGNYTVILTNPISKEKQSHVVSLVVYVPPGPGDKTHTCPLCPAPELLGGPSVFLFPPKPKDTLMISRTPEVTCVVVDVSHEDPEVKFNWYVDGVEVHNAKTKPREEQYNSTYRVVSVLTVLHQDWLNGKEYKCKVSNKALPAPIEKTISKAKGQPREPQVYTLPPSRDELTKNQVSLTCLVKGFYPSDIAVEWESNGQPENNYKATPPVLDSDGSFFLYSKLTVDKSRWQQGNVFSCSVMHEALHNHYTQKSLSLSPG

Row | EC50(nM), neutralization of HUVEC proliferation, VEGF165 at 10 ng/mL [nM] | EC50(nM), neutralization of HUVEC proliferation, VEGF165 at 100 ng/mL [nM] | EC50(nM), neutralization of HUVEC proliferation, VEGF165 at 1000 ng/mL [nM] | Maximum neutralization rate (%), VEGF165 at 10 ng/mL [%] | Maximum neutralization rate (%), VEGF165 at 100 ng/mL [%] | Maximum neutralization rate (%), VEGF165 at 1000 ng/mL [%] | Substance
1 | 0.18 | 2.86 | 29 | 102 | 99.7 | 108 | Conbercept (Fc fusion)
2 | 0.15 | 2.56 | 32.4 | 92.7 | 89.6 | 76.7 | EYLEA (Aflibercept) (Fc fusion)
